Assay results taken from the supplement of paper PMC10567573.

B1: CFHR2 (parent)
chain: FVENGHSESSGQTHLEGDTVQIIC
B2: PTPN9 (parent)
chain: TQHLPRECLPENLGGYVKIDLATW

Variants of: B1
Assay: protein stability index of a GFP-peptide fusion (GPS, HEK-293T) (PSI 1-6); higher = more stable
Settings: c terminus: a fixed tail appended
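Further: lentivirally expressed fusions sorted by FACS into six bins by GFP to DsRed ratio, PSI derived from sequencing read proportions per bin multiplied by bin number.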

Protein stability index: each site, then its substitutions
C24: V 1.95; N 3.42; W 3.05; S 3.91; Y 2.08; T 3.61; P 3.87; Q 4.31; R 3.57

Variants of: B2
Assay: as above
Settings: c terminus: a fixed tail appended

Protein stability index, by site and new letter:
T1: F 2.14; R 2.1; I 1.72; K 1.88; S 2.11; P 2.07; G 2.15; A 2.06; L 1.67; C 1.51; D 2.51; Q 2.05; E 2.06
L21: I 1.65; A 2.09; N 2.63; V 2.36; W 1.76; D 3.46; F 1.76; M 1.88; P 2.78; Q 2.96; R 2.97; C 2.06; E 3.27; K 3.35; Y 1.97; G 2.85
I19: K 3.08; H 2.5; E 3.58; M 2.79; A 2.86; S 2.76; G 3.3; F 1.79; D 3.07; N 2.67; W 2.46; Q 3.04
Q2: A 1.84; I 1.96; G 2.5; K 1.86; H 1.52; L 2.17; D 2.02; N 2.05; Y 2.48; W 1.49; M 1.47; S 1.73
K18: H 1.79; T 1.91; E 1.93; M 1.73; S 1.97; V 3.3; I 2.12; L 2.52; W 2.43; C 1.49; R 1.4; D 3.51; A 2; G 1.93; N 2.18; P 2.19; Y 1.91
V17: R 2; Y 1.95; T 2.36; S 2.57; C 1.89; A 2.57; G 2.57; M 2.01; E 2.85; F 1.77; H 2.29; D 3.24
P5: F 1.82; E 2.6; G 1.73; W 2.33; I 2.88; C 1.77; K 2.68; Q 1.66; H 1.95; R 2.45; Y 1.64; N 2.04
C8: H 2.56; I 1.7; K 1.93; L 1.8; D 2.48; A 2.16; N 2.15; Y 2.11; T 2.19; E 2.24; W 1.72; P 2.16; M 1.81; F 2.3
L9: Q 2.01; T 2.01; M 2.03; W 1.9; A 2.55; V 1.65; C 1.73; R 1.77; E 2.22; P 2.18; F 1.94; N 1.97
N12: I 1.79; E 3.02; P 1.49; G 2; V 2.03; Y 2.52; C 1.92; S 2.21; H 1.92; M 1.96; T 1.82; K 1.8
E11: A 1.97; D 1.84; S 2.04; N 1.41; H 1.48; L 2.73; G 1.41; M 2.46; I 1.89; P 1.63; Q 1.71; C 1.52; F 1.8; V 1.58; W 1.56
L4: V 1.96; W 2.14; P 2.5; D 2.31; Y 1.99; T 1.98; K 2.1; F 2.06; Q 2.82; H 2.53; G 1.96; N 2; E 2.46; I 1.86; R 2.04
G15: T 1.35; A 1.67; S 1.92; D 2.2; Q 1.38; L 1.73; C 2.36; E 2.26; H 1.76; V 1.62; N 1.93; Y 2.16; F 2.44
H3: T 2.45; P 1.77; M 1.92; D 2.86; A 1.84; I 1.79; E 2.28; S 2.15; N 2.03; W 1.65; Q 1.91; C 1.91
L13: E 3.46; H 2.21; W 2.54; D 2.65; Q 2.2; K 1.96; V 2.17; P 2.17; N 2.58; T 2.28; C 1.55; F 1.41
R6: H 1.63; L 1.49; D 2.52; Y 1.69; T 2.2; M 2.16; W 1.57; E 2.27; N 1.98; S 2.18; K 2.2; P 2.24
T23: H 2.09; F 2.17; W 2.94; E 2.73; I 2.02; Y 1.71; A 1.83; Q 2.58; G 1.9; V 3.6; K 2.38; C 1.38; M 1.83; P 1.99; R 1.89; L 1.76
D20: F 2.58; G 1.78; I 2.01; C 1.94; Q 1.6; V 2.73; T 2.51; L 1.66; N 1.78; S 1.92; E 1.67; K 1.94
P10: H 1.91; V 1.82; L 1.55; F 1.97; D 1.88; I 1.61; N 2.23; S 2.49; R 2.24; Y 1.68; Q 1.6; T 1.62
G14: C 1.55; A 1.96; H 1.91; Q 1.96; I 1.74; S 2.07; L 1.43; Y 2.45; D 2.99; F 1.93; T 1.46; E 2.15; W 2.02; K 1.68; R 2.04; M 2.03; V 2.35
Y16: I 2.29; H 2.41; C 2.48; E 3.37; A 3.01; R 2.44; V 2.35; L 1.98; D 3.39; T 3.02; Q 2.67; W 1.5; K 3.1; N 3.17; M 2.35; S 2.62; F 1.66; G 2.87
W24: S 3.06; I 1.94; T 3; G 3.38; A 2.84; P 2.86; H 2.66; C 2.28; E 4.07; D 3.88; L 2.12; M 2.05; R 2.61
E7: P 2.52; S 1.94; V 2.22; T 1.42; A 1.82; C 2.49; L 2.25; M 2.33; K 1.52; Q 1.63; H 1.85; I 2.52
A22: E 2.35; H 1.78; R 1.23; G 1.64; L 3.29; I 1.87; D 3.18; K 2.08; Y 2.21; S 1.72; M 1.65; N 2.35; C 1.92; F 2.43
